Key:
Assay in all cases: cell-based or functional assay
[1] = target: HIV-1 envelope glycoprotein (Env) of isolate MG RM-A-008, subtype A (HIV-1)
[2] = target: HIV-1 93IN905 Env (HIV-1)
[3] = target: HIV-1 envelope glycoprotein (Env) of isolate MG RM-A-010, subtype A (HIV-1)
[4] = target: HIV-1 envelope glycoprotein (Env) of isolate MG RM-A-012, subtype A (HIV-1)
[5] = target: HIV-1 JR-CSF Env N392Q (HIV-1 (isolate JR-CSF)) (UniProt P20871)
[6] = target: HIV-1 MGRM-AG-005 envelope protein (Env) on pseudovirus (HIV-1)
[7] = target: HIV-1 JR-CSF Env D417A (HIV-1 (isolate JR-CSF)) (UniProt P20871)
[8] = target: HIV-1 envelope glycoprotein (Env) of isolate MG RM-A-013, subtype A (HIV-1)
[9] = target: HIV-1 Env of isolate MGRM-AE-007 (pseudovirus) (HIV-1)
[10] = target: HIV-1 Env of isolate MGRM-F1-023 (pseudovirus) (HIV-1)
[11] = target: HIV-1 envelope glycoprotein (Env) of isolate MG RM-AG-002 (HIV-1)
[12] = target: HIV-1 Env of pseudovirus MGRM-F1-022 (HIV-1)
[13] = target: HIV-1 Env of pseudovirus MGRM-D-018 (HIV-1)
[14] = target: HIV-1 92RW021 envelope glycoprotein (Env) on pseudovirus (HIV-1 (clade A))
[15] = target: HIV-1 MGRM-AG-011 Env (pseudovirus) (HIV-1)
[16] = target: HIV-1 envelope glycoprotein (Env) of isolate MGRM-C-022 (HIV-1)
[17] = target: HIV-1 Env of pseudovirus MGRM-G-011 (HIV-1)
[18] = target: HIV-1 Env of pseudovirus MGRM-G-014 (HIV-1)
[19] = target: HIV-1 envelope glycoprotein (Env) of isolate MGRM-C-025 (HIV-1)
[20] = target: HIV-1 Env of isolate 92RW008 (clade A pseudovirus) (HIV-1)
[21] = target: HIV-1 Env of isolate MGRM-D-002 (clade D pseudovirus) (HIV-1)
[22] = target: HIV-1 Env of isolate APV_6, clade B (HIV-1)
[23] = target: HIV-1 Env of isolate MGRM-D-019 (pseudovirus) (HIV-1)
[24] = target: HIV-1 Env of isolate MGRM-A-005 (pseudovirus) (HIV-1)
[25] = target: HIV-1 Env of pseudovirus isolate MGRM-C-028 (clade C) (HIV-1)
[26] = target: HIV-1 Env of isolate MGRM-F1-006 (HIV-1)
[27] = target: HIV-1 Env of isolate MGRM-A-006 (pseudovirus) (HIV-1)
[28] = target: HIV-1 Env of isolate MGRM-F1-010 (HIV-1)
[29] = target: HIV-1 Env of isolate MGRM-AG-003 (subtype AG) (HIV-1)
[30] = target: HIV-1 Env of isolate MGRM-AE-002 (subtype AE) (HIV-1)
[31] = target: HIV-1 Env of pseudovirus isolate MGRM-C-010 (clade C) (HIV-1)
[32] = target: HIV-1 Env of pseudovirus isolate 92BR020 (clade B) (HIV-1)
[33] = target: HIV-1 Env of isolate 92RW008 (subtype A) (HIV-1)
[34] = target: HIV-1 Env of isolate MGRM-C-026 (subtype C), on pseudovirus (HIV-1)
[35] = target: HIV-1 Env of isolate 92UG114 (HIV-1)

In the case of 4858_P08 (PGT-123) (antibody), the IC50, pseudovirus neutralization [1] is reported as > 50 µg/mL, the IC50, pseudovirus neutralization [2] is reported as 0.0071 µg/mL and the IC50, pseudovirus neutralization [3] is reported as 0.705 µg/mL. It also gave an IC50, pseudovirus neutralization [4] of 0.192 µg/mL, a Fold IC50 increase relative to wild-type (pseudovirus neutralization) [5] of 1 fold and an IC50 (ug/mL), pseudovirus neutralization [6] of 0.104 µg/mL. The Fold IC50 increase relative to wild-type (pseudovirus neutralization) [7] was 0.7 fold, the IC50, pseudovirus neutralization [8] was 0.565 µg/mL and the IC50 (µg/mL), pseudovirus neutralization [9] was > 50 µg/mL. The IC50 (µg/mL), pseudovirus neutralization [10] was 0.053 µg/mL.
For PGT-143 (4980_N08) (antibody), the IC50 [11] was 0.076 µg/mL, the IC50, pseudovirus neutralization [12] was 0.082 µg/mL and the IC50, pseudovirus neutralization [13] was > 50 µg/mL.
For PGT-142 (4995_E20) (antibody), the IC50 [11] was 0.044 µg/mL, the IC50, pseudovirus neutralization [12] was 0.04 µg/mL and the IC50, pseudovirus neutralization [13] was > 50 µg/mL.
1496_C09 (PG9) (TCN-109) (antibody) showed an IC50 (µg/ml), pseudovirus neutralization [14] of 0.05 µg/mL, an IC50, pseudovirus neutralization [2] of 0.048 µg/mL and an IC50 (µg/ml), pseudovirus neutralization [15] of 0.01 µg/mL. For the same substance, the IC50 (µg/ml), pseudovirus neutralization [16] was 0.19 µg/mL, the IC50 (µg/ml), pseudovirus neutralization [17] was 0.19 µg/mL and the IC50 (µg/ml), pseudovirus neutralization [18] was 6.32 µg/mL. The IC50 (µg/ml), pseudovirus neutralization [19] was 0.17 µg/mL, the IC50 (µg/ml), pseudovirus neutralization [20] was 0.01 µg/mL and the IC50, pseudovirus neutralization [21] was 0.027 µg/mL. For the same substance, the IC50 (µg/ml), pseudovirus neutralization [22] was 0.12 µg/mL and the IC50 (µg/mL), pseudovirus neutralization [9] was 0.18 µg/mL.
In the case of 5114_A19 (PGT-128) (antibody), the IC50 (µg/mL), pseudovirus neutralization [23] is reported as > 50 µg/mL, the IC50 (µg/mL), pseudovirus neutralization [24] is reported as > 50 µg/mL and the IC50, pseudovirus neutralization [25] is reported as 14.4 µg/mL. The IC50 (µg/mL), pseudovirus neutralization [26] was 0.763 µg/mL, the IC50 (µg/mL), pseudovirus neutralization [27] was > 50 µg/mL and the Fold IC50 increase relative to wild-type (pseudovirus neutralization) [5] was 0.9 fold. It also gave an IC50 (µg/mL), pseudovirus neutralization [28] of 16.7 µg/mL, an IC50, pseudovirus neutralization [29] of 34.8 µg/mL and an IC50, pseudovirus neutralization [30] of 0.522 µg/mL. For the same substance, the IC50, pseudovirus neutralization [31] was > 50 µg/mL and the Fold IC50 increase relative to wild-type (pseudovirus neutralization) [7] was 0.5 fold.
With PGT-144 (4970_K22) (antibody) the IC50 [11] was 7.78 µg/mL, the IC50, pseudovirus neutralization [12] was 0.382 µg/mL and the IC50, pseudovirus neutralization [13] was > 50 µg/mL.
With PGT-141 (4964_G22; 4993_K13) (antibody) the IC50 [11] was 0.049 µg/mL, the IC50, pseudovirus neutralization [12] was 0.114 µg/mL and the IC50, pseudovirus neutralization [13] was > 50 µg/mL.
For 5329_C19 (PGT-136) (antibody), the IC50 (µg/mL), pseudovirus neutralization [23] was > 50 µg/mL, the IC50 (µg/mL), pseudovirus neutralization [24] was > 50 µg/mL and the IC50, pseudovirus neutralization [25] was 33.7 µg/mL. For the same substance, the IC50 (µg/mL), pseudovirus neutralization [26] was > 50 µg/mL, the IC50 (µg/mL), pseudovirus neutralization [27] was > 50 µg/mL and the IC50 (µg/mL), pseudovirus neutralization [28] was > 50 µg/mL. The IC50, pseudovirus neutralization [29] was > 50 µg/mL, the IC50, pseudovirus neutralization [30] was > 50 µg/mL and the IC50 (ug/mL), pseudovirus neutralization [6] was > 10 µg/mL. The IC50, pseudovirus neutralization [31] was > 50 µg/mL.
4838_L06 (PGT-121) (antibody) was tested, and the IC50, pseudovirus neutralization [1] was > 50 µg/mL, the IC50, pseudovirus neutralization [3] was 2.44 µg/mL and the IC50, pseudovirus neutralization [4] was 0.092 µg/mL. It also gave an IC50, pseudovirus neutralization [8] of 0.387 µg/mL and an IC50 (µg/mL), pseudovirus neutralization [10] of 0.097 µg/mL.
For 4970_K22 (PGT-144) (antibody), the IC50, pseudovirus neutralization [32] was 44 µg/mL, the IC50, pseudovirus neutralization [33] was > 50 µg/mL and the IC50, single-round pseudovirus neutralization [34] was > 50 µg/mL. The IC50 (µg/mL), pseudovirus neutralization [35] was > 50 µg/mL.
With 4995_E20 (PGT-142) (antibody) the IC50, pseudovirus neutralization [32] was 15.1 µg/mL, the IC50, pseudovirus neutralization [33] was 0.447 µg/mL and the IC50, single-round pseudovirus neutralization [34] was > 50 µg/mL. The IC50 (µg/mL), pseudovirus neutralization [35] was > 50 µg/mL.
5141_B17 (PGT-126) (antibody) was tested, and the IC50, pseudovirus neutralization [1] was > 50 µg/mL, the IC50, pseudovirus neutralization [2] was 0.0194 µg/mL and the IC50, pseudovirus neutralization [3] was 0.002 µg/mL. For the same substance, the IC50, pseudovirus neutralization [4] was 0.097 µg/mL, the Fold IC50 increase relative to wild-type (pseudovirus neutralization) [5] was 1.6 fold and the IC50 (ug/mL), pseudovirus neutralization [6] was 1.35 µg/mL. For the same substance, the Fold IC50 increase relative to wild-type (pseudovirus neutralization) [7] was 1 fold, the IC50, pseudovirus neutralization [8] was 0.006 µg/mL and the IC50 (µg/mL), pseudovirus neutralization [9] was > 50 µg/mL. The IC50 (µg/mL), pseudovirus neutralization [10] was 0.009 µg/mL.
